T1: recombinant TIP1 protein (tax interacting protein 1) (Homo sapiens (Human), UniProt O14907 2-124, limits assumed)
T1 construct: Purified recombinant TIP1 used as coat or analyte in ELISA, Western blot and Biacore
T1 sequence: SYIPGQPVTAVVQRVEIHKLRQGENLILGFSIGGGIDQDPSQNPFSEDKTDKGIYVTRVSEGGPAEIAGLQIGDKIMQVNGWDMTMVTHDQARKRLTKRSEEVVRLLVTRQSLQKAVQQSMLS

T2: TIP1 in or on human tumor cell lines (A549, H460, H23, U251) (human, UniProt O14907 2-124)
T2 construct: Endogenous TIP1 of tumor cell lines, not transfected cells; also called cell surface TIP1
T2 sequence: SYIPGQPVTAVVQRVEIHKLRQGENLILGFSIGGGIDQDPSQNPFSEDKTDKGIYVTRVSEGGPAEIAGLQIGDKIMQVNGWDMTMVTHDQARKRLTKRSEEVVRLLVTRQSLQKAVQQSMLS


What was measured:
[1] = target: T1, recombinant TIP1 protein (tax …); experiment: indirect ELISA, hybridoma supernatant dilutions on coated recombinant TIP1, anti-mouse HRP, TMB
Procedure: Indirect ELISA was performed using standard procedures. Briefly, 10 ug purified recombinant TIP1 protein was coated overnight in 96-well ELISA plates. Next day, wells were blocked with 3% milk and left overnight in the refrigerator. Following day, various 2-fold dilutions of the hybridoma supernatants were prepared in 3% milk and added to the wells in duplicate. The plates were then washed with PBS-0.1% Tween 20 buffer and incubated with anti-mouse HRP conjugated antibodies. Following washing with PBST, plates were developed with TMB substrate and absorbance read in a plate reader at 450 nm.

[2] = target: T2, TIP1 in or on human tumor cell lines …; experiment: flow cytometry, hybridoma supernatant on A549, H460 and H23 cells, Alexa Fluor 488 anti-mouse antibody
Procedure: A549, H460 and H23 cells were incubated with the hybridoma supernatants on ice for 1 h. […] Following washing with FACS buffer, cells were acquired in the MACSQuant Analyzer flow cytometer.

Row | binding result [1] | binding result [2] | Binder
1 | binds |  | 4B12 mouse monoclonal anti-TIP1 antibody (antibody, V domains shown, also called 4612) VH: QFQLQQSGAELARPGASVKLSCKASGYTFTSYGISWVKQRTGQGLEWIGEIYFRSGNIYYNEKFKGKATLTADKSSSTAYMELRSLTSEDSAVYFCARSKTFYSNYGGVFDYWGQGTTLTVSS VL: DVLVTQTPLSLPVSLGDQASISCRSSRSIVHNNGNTYLEWYLQKPGQSPKLLIYKVSNRFSGVPDRFSGSGSGTDFTLKISRVEAEDLGVYYCFQGSHVPPTFGGGTRLEIK
2 |  | binds | 2F10 mouse monoclonal anti-TIP1 antibody (antibody, V domains shown, Mouse monoclonal from hybridoma, tested as supernatant or purified) VH: QVQLQQSGAELARPGASVKLSCKASGYTFTSSGISWVIQKTGQGLEWIGEIYPRSGNTYYNEKFKAKAALTADKSSSTAHMELRSLTSEDSAVYFCARSKTYYSKYGGFFDYWGQGTPLTVSS VL: DVLMTQTPLSLPVSLGDQASISCRSSQSIVHGNGNTYLEWYLQKPGQSPKLLIHKVSNRFSGVPDRFSGSGSGTDFTLKISRVEAEDLGVYYCFQGSHVPPTFGGGTKLEIK
3 |  | binds | 3D6 mouse monoclonal anti-TIP1 antibody (antibody, V domains shown, Mouse monoclonal from hybridoma) VH: QVQLHQSGAELARPGAAVKLTCKASGYTLTNSGISWVKQRSGQGLEWIGEIYPGSGNIYYNEKFKVKATLTADKSSSTTYMELRSLTSEDSAVYFCARSRTYYSKYGGLFDYWGQGATLTVSS VL: DVLMTQTPLSLPVRLGDQASISCRSSQSLLHNNGNTYLEWYLQKPGQSPKLLIYKVSSRFSGVPDRFSGSGSGTDFTLKISRVEAKDLGVYYCFQGSHIPPTFGGGTKLEIK
4 |  | binds | 7H5 mouse monoclonal anti-TIP1 antibody (antibody, V domains shown, Mouse monoclonal from hybridoma) VH: QAQLQQSGAELARPGASVRLSCKASGYILTSSGISWVKQRTGQGLEWIGEIYPRSGNTYYNEKFKGKATLTADKSSSIAYMDLRTLTSEDSAVYFCARSKTFYSKYGGVFDYWGQGTTLTVSS VL: DVLMTQTPLSLPVSLGDQASISCRSSQNIVHNNGNTYLDWYLQKPGQSPKLLIYKVSNRFSGVPDRFSGSGSGADFTLKISRVEAEDLGVYYCFQGSHVPPTFGGGTKLEIK

From patent publication US20200239590A1 (WASHINGTON UNIVERSITY, published 2020)
